Source: patent US20220169688A1 (Dana-Farber, published 2022)
Bridge positions count the residues as written; N and C are the ends. Square brackets hold non-standard residues; d marks the D form. Primed or numbered codes have the meaning given here. Ends that are not written are not given here. R8 = C=CCCCCCC[C@@](C)(N)C(=O)O; S5 = C=CCCC[C@](C)(N)C(=O)O; FITC′ = not defined here; Nle = CCCC[C@H](N)C(=O)O

T1: recombinant human E1 activating enzyme UBA1 (human, UniProt P22314 1-1058, limits assumed)
T1 construct: also called UBE1
T1 sequence: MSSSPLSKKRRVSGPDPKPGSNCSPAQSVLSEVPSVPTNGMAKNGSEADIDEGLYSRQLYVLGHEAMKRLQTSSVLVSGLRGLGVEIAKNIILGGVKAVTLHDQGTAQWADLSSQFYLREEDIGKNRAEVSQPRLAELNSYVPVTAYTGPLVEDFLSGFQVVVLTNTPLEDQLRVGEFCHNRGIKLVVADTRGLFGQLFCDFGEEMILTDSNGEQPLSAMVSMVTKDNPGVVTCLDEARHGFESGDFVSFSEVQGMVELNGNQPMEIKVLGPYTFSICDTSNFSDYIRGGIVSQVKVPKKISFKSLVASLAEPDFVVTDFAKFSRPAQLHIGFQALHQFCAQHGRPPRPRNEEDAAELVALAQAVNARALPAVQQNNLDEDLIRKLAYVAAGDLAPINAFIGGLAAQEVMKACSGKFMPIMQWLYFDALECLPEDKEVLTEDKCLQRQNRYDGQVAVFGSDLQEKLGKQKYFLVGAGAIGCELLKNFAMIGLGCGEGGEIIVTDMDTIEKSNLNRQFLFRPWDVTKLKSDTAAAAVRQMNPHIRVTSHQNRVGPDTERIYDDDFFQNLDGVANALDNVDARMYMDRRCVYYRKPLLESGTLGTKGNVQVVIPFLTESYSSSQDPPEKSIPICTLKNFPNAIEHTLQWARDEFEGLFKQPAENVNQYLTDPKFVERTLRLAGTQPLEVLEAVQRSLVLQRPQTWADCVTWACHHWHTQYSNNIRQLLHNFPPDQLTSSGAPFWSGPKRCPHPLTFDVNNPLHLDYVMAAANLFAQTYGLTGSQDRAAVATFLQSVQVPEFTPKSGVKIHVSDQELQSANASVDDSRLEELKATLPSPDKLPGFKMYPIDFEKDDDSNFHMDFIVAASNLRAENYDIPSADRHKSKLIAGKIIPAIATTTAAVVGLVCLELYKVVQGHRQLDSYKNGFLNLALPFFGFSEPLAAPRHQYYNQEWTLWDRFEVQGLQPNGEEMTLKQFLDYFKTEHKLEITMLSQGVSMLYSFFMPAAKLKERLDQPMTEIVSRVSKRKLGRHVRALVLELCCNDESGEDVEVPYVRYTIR

T2: His-tagged UBA1 captured on Ni-NTA agarose beads (human, UniProt P22314 1-1058, limits assumed)
T2 construct: also called His-UBA1; His-UBE1; not shown: His tag
T2 sequence: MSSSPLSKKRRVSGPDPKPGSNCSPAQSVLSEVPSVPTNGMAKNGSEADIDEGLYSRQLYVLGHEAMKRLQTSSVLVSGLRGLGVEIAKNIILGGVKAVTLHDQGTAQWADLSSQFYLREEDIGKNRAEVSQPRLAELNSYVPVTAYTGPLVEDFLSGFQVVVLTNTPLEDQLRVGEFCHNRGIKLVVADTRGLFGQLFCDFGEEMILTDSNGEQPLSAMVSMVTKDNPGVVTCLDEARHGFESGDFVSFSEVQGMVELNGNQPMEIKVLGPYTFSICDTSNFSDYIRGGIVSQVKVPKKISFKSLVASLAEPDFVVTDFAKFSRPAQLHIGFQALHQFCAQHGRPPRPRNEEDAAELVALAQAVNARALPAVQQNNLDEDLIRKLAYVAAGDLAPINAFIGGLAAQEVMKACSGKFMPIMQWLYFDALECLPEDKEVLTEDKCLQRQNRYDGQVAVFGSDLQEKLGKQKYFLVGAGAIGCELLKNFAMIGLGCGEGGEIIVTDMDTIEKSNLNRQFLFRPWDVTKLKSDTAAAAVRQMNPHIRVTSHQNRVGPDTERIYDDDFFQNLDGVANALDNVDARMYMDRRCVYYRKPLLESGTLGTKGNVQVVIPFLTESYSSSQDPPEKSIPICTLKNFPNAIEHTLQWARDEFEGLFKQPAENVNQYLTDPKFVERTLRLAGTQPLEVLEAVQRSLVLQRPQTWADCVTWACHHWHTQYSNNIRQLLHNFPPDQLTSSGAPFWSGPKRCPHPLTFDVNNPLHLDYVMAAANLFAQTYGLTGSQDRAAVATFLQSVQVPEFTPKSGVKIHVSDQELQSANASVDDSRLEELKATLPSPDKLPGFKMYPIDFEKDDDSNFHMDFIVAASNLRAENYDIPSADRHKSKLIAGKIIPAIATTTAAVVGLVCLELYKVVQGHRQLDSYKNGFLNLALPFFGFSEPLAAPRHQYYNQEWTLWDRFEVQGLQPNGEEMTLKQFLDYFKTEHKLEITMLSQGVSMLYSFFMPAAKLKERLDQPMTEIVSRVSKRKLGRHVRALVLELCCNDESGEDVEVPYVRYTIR

T3: native UBA1 in HeLa cell lysate (human, UniProt P22314 2-1058, limits assumed)
T3 construct: Endogenous protein in HeLa cell lysate or S100 fraction; also called UBE1
T3 sequence: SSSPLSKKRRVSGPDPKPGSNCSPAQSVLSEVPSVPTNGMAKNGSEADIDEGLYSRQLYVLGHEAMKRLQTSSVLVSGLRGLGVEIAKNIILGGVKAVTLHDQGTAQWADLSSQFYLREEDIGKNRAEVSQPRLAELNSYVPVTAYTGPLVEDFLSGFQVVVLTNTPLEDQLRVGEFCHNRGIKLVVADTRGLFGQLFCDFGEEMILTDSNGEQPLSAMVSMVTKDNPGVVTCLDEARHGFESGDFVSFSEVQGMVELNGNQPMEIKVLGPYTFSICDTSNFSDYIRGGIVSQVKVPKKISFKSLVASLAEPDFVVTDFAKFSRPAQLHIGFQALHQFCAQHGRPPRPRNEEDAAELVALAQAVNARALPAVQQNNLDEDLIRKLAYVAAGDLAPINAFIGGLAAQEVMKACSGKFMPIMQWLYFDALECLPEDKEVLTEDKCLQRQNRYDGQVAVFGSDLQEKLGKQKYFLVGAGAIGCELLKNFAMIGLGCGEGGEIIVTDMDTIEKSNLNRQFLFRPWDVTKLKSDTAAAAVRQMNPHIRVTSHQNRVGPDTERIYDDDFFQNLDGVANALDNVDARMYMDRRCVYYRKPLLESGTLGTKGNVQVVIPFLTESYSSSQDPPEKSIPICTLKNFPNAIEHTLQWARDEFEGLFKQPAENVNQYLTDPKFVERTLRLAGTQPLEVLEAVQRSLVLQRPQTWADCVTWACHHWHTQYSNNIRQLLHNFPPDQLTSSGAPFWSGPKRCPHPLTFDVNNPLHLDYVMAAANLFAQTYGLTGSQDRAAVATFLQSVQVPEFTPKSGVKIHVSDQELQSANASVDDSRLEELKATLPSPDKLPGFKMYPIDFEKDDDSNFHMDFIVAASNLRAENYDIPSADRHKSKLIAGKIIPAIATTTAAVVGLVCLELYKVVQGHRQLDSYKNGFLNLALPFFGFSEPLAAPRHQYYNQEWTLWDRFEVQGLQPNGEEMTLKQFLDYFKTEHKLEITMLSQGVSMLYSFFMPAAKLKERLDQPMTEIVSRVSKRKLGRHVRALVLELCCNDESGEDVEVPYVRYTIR


Assays:
[1] = target: T1, recombinant human E1 activating enzyme …; test: fluorescence polarization, without and with ubiquitin and ATP
Text: In vitro Binding Assays: To assess the binding and affinity of ligands to acceptor proteins, a fluorescence polarization assay (FPA) can be used, for example. The FPA technique measures the molecular orientation and mobility using polarized light and fluorescent tracer.

[2] = target: T2, His-tagged UBA1 captured on Ni-NTA …; test: fluorescence microscopy of Ni-NTA agarose beads carrying His-UBA1; 10 µM FITC-labeled peptide
Experimental: Fluorescence Microscopy: His-tagged UBA1 (25 μg) was incubated with Ni-NTA agarose beads (100 μl) (Invitrogen™ R90110) in PBS for 30 min. […] Beads were plated in 386-well plate format (10 μl/well) (Corning 384-well High Content Imaging Glass Bottom Microplate) and imaged with an Olympus wide-field epifluorescence microscope, a 63× LCPlanFL NA 0.7 objective, and a CoolSNAP DYNO camera.

His-tagged p53 = target: T4, His-tagged p53 (UniProt P04637 1-393, limits assumed); test: fluorescence microscopy of Ni-NTA agarose beads carrying His-p53, incubated with FITC-labeled peptide
T4 construct: Control protein captured on Ni-NTA agarose beads; also called His-p53; unrelated protein control; not shown: His tag

[3] = target: T3, native UBA1 in HeLa cell lysate; test: streptavidin-biotin pull-down from HeLa cell lysate, western blot
Experimental: (§1) 30 μL of pre-equilibrated streptavidin agarose beads were then added and incubated for an additional 1.5 hours at 4° C. The beads were pelleted by centrifugation and washed three times with NP-40 buffer (20 mM HEPES, pH 7.4, 50 mM NaCl, 5 mM DTT, 0.5% [v/v] NP-40) before eluting the protein sample from the beads by heating at 70° C. for 10 min in 3×SDS loading buffer. Samples were subjected to electrophoresis and silver staining (Pierce 24612). […] 30 μL of pre-equilibrated streptavidin agarose beads (ThermoFisher 20357) were then added and incubated for an additional 1.5 hours at 4° C. The beads were pelleted by centrifugation and washed three times with NP-40 buffer (20 mM HEPES, pH 7.4, 50 mM NaCl, 5 mM DTT, 0.5% [v/v] NP-40) before eluting the protein sample from the beads by heating at 70° C. for 10 min in 3×SDS loading buffer. Proteins were separated by SDS-PAGE gel electrophoresis and detected by western blot against UBE1 (Abcam ab34711). […] Conjugation of ubiquitin to E2 by E1 is monitored by conversion of free E2 (17 kDa) to E2˜ubiquitin conjugate (26 kDa). Quantitation of percent inhibition was calculated from densitometry of silver stain images.

[4] = target: T1, recombinant human E1 activating enzyme …; test: streptavidin-biotin pull-down, silver-stained protein gel
Experimental: as §1

T4 sequence (P04637 whole entry): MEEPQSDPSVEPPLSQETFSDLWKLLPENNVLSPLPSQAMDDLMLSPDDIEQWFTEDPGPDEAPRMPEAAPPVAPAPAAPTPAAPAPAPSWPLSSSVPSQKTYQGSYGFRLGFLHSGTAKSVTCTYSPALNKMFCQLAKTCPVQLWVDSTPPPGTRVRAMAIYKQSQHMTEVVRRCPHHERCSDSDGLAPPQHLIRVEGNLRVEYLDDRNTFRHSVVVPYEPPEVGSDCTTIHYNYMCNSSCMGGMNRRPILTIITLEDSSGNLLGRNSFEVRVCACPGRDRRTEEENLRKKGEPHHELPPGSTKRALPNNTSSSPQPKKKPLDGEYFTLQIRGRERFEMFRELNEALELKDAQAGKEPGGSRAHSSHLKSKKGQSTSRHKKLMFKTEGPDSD

binding result [1] | binding result [2] | binding result (His-tagged p53) | binding result [3] | binding result [4] | Binder
binds | binds | no binding (tested: 10 µM) | – | – | [Nle]STP[R8]RRRL[Nle]R[S5]FKRLQ-{FITC′} (staple 5-12, also called FITC-labeled SAH-UBE2A-11; FITC-labeled peptide) [FITC-SAH-UBE2A (FITC conjugated to SEQ ID NO: 132)]
– | – | – | binds | binds | Ac-[Nle]STP[R8]RRRL[Nle]R[S5]FKRLQ-biotin (staple 5-12, also called biotinylated peptide; not shown: C-terminal biotin handle) [C-terminally biotinylated SAH-UBE2A]
